In article PMC6238601, “Specificity for deubiquitination of monoubiquitinated FANCD2 is driven by the N-terminus of USP1” (Life Science Alliance, 2018):
Changes are numbered by the printed parent chain. Numbers in names are those of the source.

Legend:
Conditions in all cases: both partners purified
[1] = molecular target: T1, UAF1 (USP1-associated factor 1) (human, UniProt Q8TAF3 1-677); assay: SEC; USP1 and UAF1 alone or together at 15 μM, 15 min on ice; SD200 Increase (10/300); 20 mM Tris pH 8.0, 150 mM NaCl, 5% glycerol, 5 mM DTT; fractions on SDS-PAGE, Coomassie
T1 construct: UAF1 (USP1-associated factor 1), human; N-terminal His-3C tag; the methods say tags were removed except from FANCD2, FANCI, USP2 and GST-ubiquitin; source: Sf21 (baculovirus), purified (Ni-NTA, anion exchange, SEC); not shown: His, N-terminal, cleaved

[2] = molecular target: T2, human PCNA-K164Ub (hsPCNA-Ub) (human | , UniProt P12004 1-261; P0CG48 1-76, K164 monoubiquitinated (isopeptide bond to ubiquitin) | C-terminus linked to K164 of PCNA); assay: pull-down; N-terminal Strep-tagged UAF1 complexed with E. coli USP1, 10 μg bound to MagStrep beads and washed; 10 μg recombinant substrate, 1 h on ice; 50 mM Tris pH 7.5, 120 mM NaCl, 5% glycerol, 1 mM DTT, 0.01% Triton X-100, 0.01% ovalbumin; SDS-PAGE; beads without USP1–UAF1 as control
T2 construct: PCNA, human; ubiquitin; Covalent conjugate; also called monoubiquitinated PCNA

[3] = molecular target: T3, UAF1 with an N-terminal Strep tag (human, UniProt Q8TAF3 1-677); assay: as above
T3 construct: UAF1 (USP1-associated factor 1), human; Strep11 tag and linker GGSGGS were added N-terminal of the His-3C tag; as the Strep tag is used for capture, the His-3C stretch was probably kept too (surmise); also called Strep-tagged UAF1; N-terminal Strep-tagged UAF1; source: Sf21 (baculovirus), purified; not shown: Strep11, N-terminal, kept

[4] = molecular target: T4, human FANCD2 (hsFANCD2), non-ubiquitinated (human, UniProt Q9BXW9 1-1451); assay: as above
T4 construct: FANCD2 (Fanconi anemia group D2 protein), human, full length; gene synthesised and optimised for Spodoptera frugiperda; His-3C tag; tags were not removed from FANCD2; also called Fanconi anemia group D2 protein; source: Sf21 (baculovirus), purified (Ni-NTA, anion exchange, SEC)

B1: USP1^ΔNΔ1Δ2 (Δ1–54, Δ229–408, Δ608–737), Sf21-expressed (domain or fragment, human, UniProt O94782 55-785, looked up)
chain: SEIDQVVPAAQSSPINCEKRENLLPFVGLNNLGNTCYLNSILQVLYFCPGFKSGVKHLFNIISRKKEALKDEANQKDKGNCKEDSLASYELICSLQSLIISVEQLQASFLLNPEKYTDELATQPRRLLNTLRELNPMYEGYLQHDAQEVLQCILGNIQETCQLLKKEEVKNVAENEVKPINKGEEQIGFELVEKLFQGQLVLRTRCLECESLTERREDFQDISVPVQEDELSKVEESSEISPEPKTEMKTLRWAISQFASVERIVGEDKYFCENCHHYTEAERSLLFDKMPEVITIHLKCFAASGLEFDCYGGGLSKINTPLLTPLKLSLEEWSTKPTNDSYGLFAVVMHSGITISSGHYTASVKVTDLNSLEQSLKEYEGKWLLFDDSEVKVTEEKDFLNSLSPSTSPTSTPYLLFYKKL
notes: USP1, human; N-terminus (Δ1–54), Insertion 1 (Δ229–408) and Insertion 2 (Δ608–737) deleted in the full-length background; the G670A/G671A site lies in the deleted Insertion 2; also called minimal USP1 catalytic domain; catalytic domain of USP1; source: Sf21 (baculovirus), purified (Ni-NTA, anion exchange, SEC)
binding result [1]: binds

B2: USP1^ΔNΔ1Δ2–UAF1 complex (Strep-tagged UAF1) (complex)
chain 1: B1 chain
chain 2: not shown
notes: USP1, human; Δ1–54, Δ229–408, Δ608–737; as m9; UAF1, human; as m7; Bait complex formed beforehand and held on MagStrep beads; source: E. coli USP1^ΔNΔ1Δ2 complexed with Sf21 Strep-UAF1, both purified; not shown: Strep11, N-terminal, kept
binding result [2]: binds

B3: USP1^ΔNΔ1Δ2 (Δ1–54, Δ229–408, Δ608–737), E. coli-expressed (domain or fragment, human, UniProt O94782 55-785, looked up)
chain: B1 chain
notes: USP1, human; Δ1–54, Δ229–408, Δ608–737; also called E. coli–expressed USP1^ΔNΔ1Δ2; source: E. coli BL21, purified (GSH resin, SEC)
binding result [3]: binds

B4: USP1^Δ1Δ2-R22K–UAF1 complex (Strep-tagged UAF1) (complex)
chain 1: MPGVIPSESNGLSRGSPSKKNKLSLKFFQKKETKRALDFTDSQENEEKASEYRASEIDQVVPAAQSSPINCEKRENLLPFVGLNNLGNTCYLNSILQVLYFCPGFKSGVKHLFNIISRKKEALKDEANQKDKGNCKEDSLASYELICSLQSLIISVEQLQASFLLNPEKYTDELATQPRRLLNTLRELNPMYEGYLQHDAQEVLQCILGNIQETCQLLKKEEVKNVAENEVKPINKGEEQIGFELVEKLFQGQLVLRTRCLECESLTERREDFQDISVPVQEDELSKVEESSEISPEPKTEMKTLRWAISQFASVERIVGEDKYFCENCHHYTEAERSLLFDKMPEVITIHLKCFAASGLEFDCYGGGLSKINTPLLTPLKLSLEEWSTKPTNDSYGLFAVVMHSGITISSGHYTASVKVTDLNSLEQSLKEYEGKWLLFDDSEVKVTEEKDFLNSLSPSTSPTSTPYLLFYKKL
chain 2: not shown
notes: USP1, human; Δ229–408, Δ608–737, R22K; as m11; UAF1, human; as m7; source: E. coli USP1^Δ1Δ2-R22K complexed with Sf21 Strep-UAF1, both purified; not shown: Strep11, N-terminal, kept
binding result [4]: binds

B5: USP1^Δ1Δ2 (Δ229–408, Δ608–737), E. coli-expressed (enzyme, human, UniProt O94782 1-785, looked up)
chain: B4 chain 1 with K22R
notes: USP1, human; Insertion 1 (Δ229–408) and Insertion 2 (Δ608–737) deleted; gene synthesised and optimised for E. coli; GST-3C tag from pGEX6P; a few residues of the 3C site may be left after cleavage (surmise); also called E. coli–expressed USP1^Δ1Δ2; source: E. coli BL21, purified (GSH resin, SEC)
binding result [3]: binds

B6: USP1^Δ1Δ2-L25A–UAF1 complex (Strep-tagged UAF1) (complex)
chain 1: B4 chain 1 with K22R, L25A
chain 2: not shown
notes: USP1, human; Δ229–408, Δ608–737, L25A; as m12; UAF1, human; as m7; source: E. coli USP1^Δ1Δ2-L25A complexed with Sf21 Strep-UAF1, both purified; not shown: Strep11, N-terminal, kept
binding result [4]: binds

B7: USP1^Δ1Δ2–UAF1 complex (Strep-tagged UAF1) (complex)
chain 1: B4 chain 1 with K22R
chain 2: not shown
notes: USP1, human; Δ229–408, Δ608–737; as m8; UAF1, human; as m7; Bait complex formed beforehand and held on MagStrep beads; also called UAF1–USP1; USP1–UAF1; source: E. coli USP1^Δ1Δ2 complexed with Sf21 Strep-UAF1, both purified; not shown: Strep11, N-terminal, kept
binding result [2]: binds

B8: USP1^Δ1Δ2-R22K, E. coli-expressed (enzyme, human, UniProt O94782 1-785, looked up)
chain: B4 chain 1
notes: USP1, human; Δ229–408, Δ608–737, R22K; source: E. coli BL21, purified (GSH resin, SEC)
binding result [3]: binds

B9: USP1^Δ1Δ2-R22A, E. coli-expressed (enzyme, human, UniProt O94782 1-785, looked up)
chain: B4 chain 1 with K22A
notes: USP1, human; Δ229–408, Δ608–737, R22A; source: E. coli BL21, purified (GSH resin, SEC)
binding result [3]: binds

B10: USP1^Δ1Δ2-L25A, E. coli-expressed (enzyme, human, UniProt O94782 1-785, looked up)
chain: B4 chain 1 with K22R, L25A
notes: USP1, human; Δ229–408, Δ608–737, L25A (one of the alanine point mutants of the N-terminus); source: E. coli BL21, purified (GSH resin, SEC)
binding result [3]: binds
